Target: HLA-DRα (human)
Conditions: scale: % of surface expression with wild type Ii

cell surface expression of DRA.DPB1*0401 co-expressed with Ii M91G (flow cytometry, mAb 2.06): 60
Substance: Ii M91G mutant (natural protein)

— publication PMC3887193
